“And” between values parts separate entries of the source, which are not always exact repeats. Equal entries are not always repeated. Values belong to the substance of their own block, whether it stands above or below them.
Legend:
[1] = target: photosystem I (PSI) complex from FRL-acclimated Chlorogloeopsis fritschii PCC 9212 (C. fritschii PCC 9212 (endogenous in the cells)); assay: atomic force microscopy; thylakoid membrane patches from 20-50% sucrose gradients with 0.1% digitonin, adsorbed on mica; PeakForce mode under liquid; 10 mM Hepes pH 7.5, 100 mM KCl; oligomer assigned from heights, nearest-neighbour angles and lateral distances
[2] = target: photosystem I (PSI) complex from FRL-acclimated Chlorogloeopsis fritschii PCC 9212 (C. fritschii PCC 9212 (endogenous in the cells)); assay: sucrose gradient sedimentation + negative-stain TEM; thylakoid membranes solubilised with 1% DDM, 5-20% sucrose gradients with 0.05% DDM, 140,000g for 12-16 h at 4°C; bands negatively stained with uranyl acetate and imaged by TEM
[3] = target: photosystem I (PSI) complex from FRL-acclimated Chroococcidiopsis thermalis PCC 7203 (C. thermalis PCC 7203 (endogenous in the cells)); assay: atomic force microscopy; thylakoid membrane patches from 20-50% sucrose gradients with 0.1% digitonin, adsorbed on mica; PeakForce mode under liquid; 10 mM Hepes pH 7.5, 100 mM KCl; oligomer assigned from heights, nearest-neighbour angles and lateral distances
[4] = target: photosystem I (PSI) complex from FRL-acclimated Chroococcidiopsis thermalis PCC 7203 (C. thermalis PCC 7203 (endogenous in the cells)); assay: native gel or EMSA; BN-PAGE; thylakoid membranes solubilised with 0.4 or 2% DDM, 4-16% NativePAGE gels
[5] = target: photosystem I (PSI) complex from FRL-acclimated Chroococcidiopsis thermalis PCC 7203 (C. thermalis PCC 7203 (endogenous in the cells)); assay: sucrose gradient sedimentation + negative-stain TEM; thylakoid membranes solubilised with 1% DDM, 5-20% sucrose gradients with 0.05% DDM, 140,000g for 12-16 h at 4°C; bands negatively stained with uranyl acetate and imaged by TEM
[6] = target: photosystem I (PSI) complex from FRL-acclimated Synechococcus sp. PCC 7335 (Synechococcus sp. PCC 7335 (endogenous in the cells)); assay: atomic force microscopy; thylakoid membrane patches from 20-50% sucrose gradients with 0.1% digitonin, adsorbed on mica; PeakForce mode under liquid; 10 mM Hepes pH 7.5, 100 mM KCl; oligomer assigned from heights, nearest-neighbour angles and lateral distances
[7] = target: photosystem I (PSI) complex from FRL-acclimated Synechococcus sp. PCC 7335 (Synechococcus sp. PCC 7335 (endogenous in the cells)); assay: sucrose gradient sedimentation; thylakoid membranes solubilised with 1% DDM, 5-20% sucrose gradients with 0.05% DDM, 140,000g for 12-16 h at 4°C; bands assigned by position (fig. S3B), no TEM told
[8] = target: photosystem I (PSI) complex from white-light-grown Chlorogloeopsis fritschii PCC 9212 (C. fritschii PCC 9212 (endogenous in the cells)); assay: atomic force microscopy; thylakoid membrane patches from 20-50% sucrose gradients with 0.1% digitonin, adsorbed on mica; PeakForce mode under liquid; 10 mM Hepes pH 7.5, 100 mM KCl; oligomer assigned from heights, nearest-neighbour angles and lateral distances
[9] = target: photosystem I (PSI) complex from white-light-grown Chlorogloeopsis fritschii PCC 9212 (C. fritschii PCC 9212 (endogenous in the cells)); assay: sucrose gradient sedimentation + negative-stain TEM; thylakoid membranes solubilised with 1% DDM, 5-20% sucrose gradients with 0.05% DDM, 140,000g for 12-16 h at 4°C; bands negatively stained with uranyl acetate and imaged by TEM
[10] = target: photosystem I (PSI) complex from white-light-grown Chroococcidiopsis thermalis PCC 7203 (C. thermalis PCC 7203 (endogenous in the cells)); assay: atomic force microscopy; thylakoid membrane patches from 20-50% sucrose gradients with 0.1% digitonin, adsorbed on mica; PeakForce mode under liquid; 10 mM Hepes pH 7.5, 100 mM KCl; oligomer assigned from heights, nearest-neighbour angles and lateral distances
[11] = target: photosystem I (PSI) complex from white-light-grown Chroococcidiopsis thermalis PCC 7203 (C. thermalis PCC 7203 (endogenous in the cells)); assay: native gel or EMSA; BN-PAGE; thylakoid membranes solubilised with 0.4 or 2% DDM, 4-16% NativePAGE gels
[12] = target: photosystem I (PSI) complex from white-light-grown Synechococcus sp. PCC 7335 (Synechococcus sp. PCC 7335 (endogenous in the cells)); assay: atomic force microscopy; thylakoid membrane patches from 20-50% sucrose gradients with 0.1% digitonin, adsorbed on mica; PeakForce mode under liquid; 10 mM Hepes pH 7.5, 100 mM KCl; oligomer assigned from heights, nearest-neighbour angles and lateral distances
[13] = target: photosystem I (PSI) complex from white-light-grown Synechococcus sp. PCC 7335 (Synechococcus sp. PCC 7335 (endogenous in the cells)); assay: as above; remark: listed apart in the source
[14] = target: photosystem I (PSI) complex from white-light-grown Synechococcus sp. PCC 7335 (Synechococcus sp. PCC 7335 (endogenous in the cells)); assay: sucrose gradient sedimentation; thylakoid membranes solubilised with 1% DDM, 5-20% sucrose gradients with 0.05% DDM, 140,000g for 12-16 h at 4°C; bands assigned by position (fig. S3B), no TEM told
[15] = target: photosystem II (PSII) complex from FRL-acclimated Chroococcidiopsis thermalis PCC 7203 (C. thermalis PCC 7203 (endogenous in the cells)); assay: sucrose gradient sedimentation + negative-stain TEM; thylakoid membranes solubilised with 1% DDM, 5-20% sucrose gradients with 0.05% DDM, 140,000g for 12-16 h at 4°C; bands negatively stained with uranyl acetate and imaged by TEM

stoichiometry N [1]: 3
stoichiometry N [2]: 3
Substance: photosystem I (PSI) complex from FRL-acclimated Chlorogloeopsis fritschii PCC 9212

stoichiometry N [12]: 3
stoichiometry N [13]: 2
stoichiometry N [14]: 2 and 3 and 4
Substance: photosystem I (PSI) complex from white-light-grown Synechococcus sp. PCC 7335

The next lines start with the substance.

Substance: photosystem I (PSI) complex from FRL-acclimated Chroococcidiopsis thermalis PCC 7203
stoichiometry N [3]: 3
stoichiometry N [4]: 3
stoichiometry N [5]: 3 and 2

Substance: photosystem I (PSI) complex from FRL-acclimated Synechococcus sp. PCC 7335
stoichiometry N [6]: 3
stoichiometry N [7]: 3 and 2

Substance: photosystem I (PSI) complex from white-light-grown Chlorogloeopsis fritschii PCC 9212
stoichiometry N [8]: 2
stoichiometry N [9]: 4 and 2

Substance: photosystem I (PSI) complex from white-light-grown Chroococcidiopsis thermalis PCC 7203
stoichiometry N [10]: 2
stoichiometry N [11]: 2

Substance: photosystem II (PSII) complex from FRL-acclimated Chroococcidiopsis thermalis PCC 7203
stoichiometry N [15]: 2
